Drawing on PMC2765987 (2009), this text covers percent of parent for 3 variants.

B1: FLAG-tagged PP6R3 (full-length, residues 1-873) [human] / PP6 catalytic subunit, endogenous [human (endogenous in HEK293, HeLa, HepG2, Jurkat)] (parent complex)
chain 1: MFWKFDLHSSSHIDTLLEREDVTLKELMDEEDVLQECKAQNRKLIEFLLKAECLEDLVSFIIEEPPQDMDEKIRYKYPNISCELLTSDVSQMNDRLGEDESLLMKLYSFLLNDSPLNPLLASFFSKVLSILISRKPEQIVDFLKKKHDFVDLIIKHIGTSAIMDLLLRLLTCIEPPQPRQDVLNWLNEEKIIQRLVEIVHPSQEEDRHSNASQSLCEIVRLSRDQMLQIQNSTEPDPLLATLEKQEIIEQLLSNIFHKEKNESAIVSAIQILLTLLETRRPTFEGHIEICPPGMSHSACSVNKSVLEAIRGRLGSFHELLLEPPKKSVMKTTWGVLDPPVGNTRLNVIRLISSLLQTNTSSINGDLMELNSIGVILNMFFKYTWNNFLHTQVEICIALILASPFENTENATITDQDSTGDNLLLKHLFQKCQLIERILEAWEMNEKKQAEGGRRHGYMGHLTRIANCIVHSTDKGPNSALVQQLIKDLPDEVRERWETFCTSSLGETNKRNTVDLVTTCHIHSSSDDEIDFKETGFSQDSSLQQAFSDYQMQQMTSNFIDQFGFNDEKFADQDDIGNVSFDRVSDINFTLNTNESGNIALFEACCKERIQQFDDGGSDEEDIWEEKHIAFTPESQRRSSSGSTDSEESTDSEEEDGAKQDLFEPSSANTEDKMEVDLSEPPNWSANFDVPMETTHGAPLDSVGSDVWSTEEPMPTKETGWASFSEFTSSLSTKDSLRSNSPVEMETSTEPMDPLTPSAAALAVQPEAAGSVAMEASSDGEEDAESTDKVTETVMNGGMKETLSLTVDAKTETAVFKSEEGKLSTSQDAACKDAEECPETAEAKCAAPRPPSSSPEQRTGQPSAPGDTSVNGPV
chain 2: MAPLDLDKYVEIARLCKYLPENDLKRLCDYVCDLLLEESNVQPVSTPVTVCGDIHGQFYDLCELFRTGGQVPDTNYIFMGDFVDRGYYSLETFTYLLALKAKWPDRITLLRGNHESRQITQVYGFYDECQTKYGNANAWRYCTKVFDMLTVAALIDEQILCVHGGLSPDIKTLDQIRTIERNQEIPHKGAFCDLVWSDPEDVDTWAISPRGAGWLFGAKVTNEFVHINNLKLICRAHQLVHEGYKFMFDEKLVTVWSAPNYCYRCGNIASIMVFKDVNTREPKLFRAVPDSERVIPPRTTTPYFL

In the assay the parent is B1. Description: co-immunoprecipitation (anti-FLAG) with quantitative fluorescent immunoblotting; expressed in HEK293 cells; endogenous PP6c; 3 independent experiments; parent: 100; read off a plot.
Turning to chain 1 E204K, chain 1 E205K, the percent of parent was ~75 PP6c / FLAG (wild type = 100).
As to chain 1 D113R, the percent of parent is ~91 PP6c / FLAG (wild type = 100).
For chain 1 E259K, chain 1 E262K the value was ~64 PP6c / FLAG (wild type = 100).
